In US20250241939A1, “NUCLEIC ACID-BASED DELIVERY SYSTEMS AND USES THEREOF” (Kodikaz Therapeutic Solutions, Inc., priority 2022, published 2025):

Tested on: MIA (pancreatic cancer) cell genome
Experiment: ctDNA coculture with MIA cells, whole genome sequencing: genomic insertion sites, transposons at insertion points and SNVs (pancreatic cancer)
Format: cell-based, human
Conditions: for blast orientation / blast chr / Transposon orientation / Distance from insertion / Location relative to insertion: TABLE 8, pancreatic cancer co-culture; for blast orientation: BLAST alignment orientation; for blast chr: chromosome with the longest result for BLAST analysis of the full contig; for Transposon orientation: compared with the human reference genome; for Distance from insertion: distance between insertion and the transposon (0 if they overlap); for Location relative to insertion: location of the transposon relative to the insertion on the contig; for Location / No. SNP / Gene / Chr location: TABLE 4; for Location: identified genomic insertion site, chromosome; for No. SNP: number of single nucleotide variants (SNVs or SNPs) identified, polynucleotides for pancreatic cancer cells; for Gene: gene at identified genomic insertion site; for Chr location: position on the chromosome of the identified genomic insertion site
Description: The integration of ctDNAs into the host cell genome was evaluated. ctDNA was extracted from patient plasma, cultured for 24 hours with cells of a matching cancer cell type or non-matching cancer cell type, and whole genome sequencing was performed. The cell lines used were MM1s (multiple myeloma, MM) and MIA (pancreatic cancer, PC).
The sequence data was used to reconstruct genomic contigs for each experimental condition by de novo assembly. […] Coculture contigs carrying a ctDNA insertion were identified using NucDiff analysis.
Experiments were designed to identify the presence of transposons in ctDNA fragments. To map ctDNA genomic junctions more precisely, a PACBIO probe was ligated to multiple myeloma and pancreatic cancer ctDNA samples to label their 5′ and 3′ ends. Whole-genome sequencing of DNA from cells with ctDNA genomic integration was done using the Illumina platform. De novo assembly was performed on the sequencing output. ctDNA contigs containing PACBIO adaptor were then matched to those contigs containing inserted ctDNA sequences identified in the coculture experiments. Transposable element on ctDNA sequences at the insertion points (<100 nucleotides from transition point between cell and ctDNA) were detected and classified using RepeatMaster.
A search was conducted for transposons that preferentially target cells of matching tumor types. The lists of transposons identified at the ctDNA insertion point in matching and mismatched coculture conditions were compared (e.g., MM ctDNA with MM cells or PC cells). Transposons were selected that were uniquely or preferentially inserted in the matching conditions.
Whole-genome sequencing and Whole exon sequencing: ctDNA was extracted from 10 MM and 10 PC patients. DNA from CD138 (+) cells and from cell lines used in in vitro experiments (MM1s and MIA) was extracted using Blood & Cell Culture DNA Mini Kit (Quiagen, MD). DNA from […] paraffin embedded pancreatic tumors was obtained using QIAamp DNA FFPE Tissue Kit Print (Qiagen, MD).
After extraction, ctDNA was ligated to the PACBIO adaptor ([…]) using the ABM DNA Library Prep Kit for Illumina Sequencing (Applied Biological Materials Inc. Canada). PACBio-labeled ctDNA and regular ctDNA were subjected to standard methods for library preparation and sequencing using Illumina and Agilent protocols, respectively. Applied Biological Materials Inc. prepared the libraries and performed whole-exon and -genome sequencing.
Identification of transposable elements and its nucleotide variants: To determine the locations of transposable-like regions in contigs, sequences were analyzed and transposable elements (TEs) were identified and classified using RepeatMasker version 4.1.0 and the Dfam database (release 3.1) of repetitive DNA families was used as a reference for identifying repeats in ctDNA contig sequences that were part of qualifying structural events. For each repeat sequence identified by RepeatMasker, the overall frequency of the specific repeat (e.g., for AluSp or L1) and their parent class (e.g., SINE) was computed.
Once the TE elements were identified, hit repeats/TE sequences, unique contigs for all samples, and insertion sequence were aligned with MAFFT software version. Mutations in TE sequences were identified by comparison of nucleotides at each position in the multiple sequence alignment with the “Biostrings” R package (version 4.1). A position was considered to contain mutation if the substitution was present in contigs of all samples.

Mam_R4
blast orientation: Plus/Plus | blast chr: chr9 | Transposon orientation: direct | Distance from insertion: 0 | Location relative to insertion: intersect

L1ME4b
blast orientation: Plus/Plus | blast chr: chr7 | Transposon orientation: direct | Distance from insertion: +1930 | Location relative to insertion: right

B1: 33 (nucleic acid, listed as Homo sapiens)
chain: TGTGTTAGTCAGGATAGGCTAACCTCTGTAACACACAACCCCAATTTTTCAGTGGCTCAGAACAATAGGAGTTTCTTTCTTACTCATGTAAAGTCCAGGTGTGGCAGAAACTTGCGGGGGAGAAAGTCTACTCCACAGCATCACTCAGGGACCCAGGCTCCTGCCTTACGGTGGTTCCGCCATTTTCCAGGGCCTCGGAGTCCTCCATCCCATCTCCTCCATTCAGCTGGTGGATGTGGGAGGAGAGCGTGTATGAAAGACCACACAGAAGCTTTTTTTGGGCCAGGCTTTGAGACGGCGCACATCAGTTTCGCTCTTGTTGCCCAGGCTGGAGTGCAATGGCGCAATCTCGGCTCACCGCAAAAGACACTGGGAAATTTGGTCTGGCCATGTGTCTAGGAAGCAGAGGAGATGGGGTTTCATAAACTCCTGAACTCTCTCTACCACG
Location: Chr21 | No. SNP: 4

B2: 35 (nucleic acid, listed as Homo sapiens)
chain: AAGATGGGGAGGATGGTGGTGGAGCAGGCTGGGGAGATGAGGAGCTTGAGGGGCCTAGGAGCTAACCACCCATTCACTGTTTATGGGTGGGGTGGCTCCGGGCAGGTGGCCTGACCCCTCTAAACCTCAGTTTCCCCATCTGTAAAATGGGAGTAATTGTACCTGCCTCACGGGCATGTAGCAGGTGGGAGAGAGAGTAATACGGGCAAGACGTCTAGTGCAGTGGCTGGAACATAACAAGCACCCAGCAAGTGGTGGCCCCATTGCT
Location: Chr14 | No. SNP: 0

B3: 49 (nucleic acid, listed as Homo sapiens)
chain: CTTTAACCTCCTTGTTACGTTTGTCTCTTCCAGAATCGAAGCTGTAAAACTACAAATGGTTCTTCAAATGGAGCCCCAGATGCAGTCCATGACTAAGATCTACCGCGGACCCCTGGACTGGCCTGCTAGCCCATGCTCCAATGTTGATGACATTGAAGGCACCCCTCCCAAGGAAATCTCAACTGCACGACCCCTACTATGCCCCAATTCAGCATGAAGCAGTTAAGAGCGGTTGTCAGCCAACCTCCCCAACAGCACTTGGGTTTTCCTGTTGAGAGGTGGGACTGAGAGA
Gene: AIG1 | Location: Chr 6 | No. SNP: 5 | Chr location: 143409567

B4: 41 (nucleic acid, listed as Homo sapiens)
chain: CCCTTGAACTTATTAAAATCTTTTATAATGTAGTACATTTACTGACTGCTTTCAGGCAGGCATGAGGACCTTTCACTCCATTTGCTCCATTGTCCCTTTTGAAGGATTCTTGTCATATATATAAAACCTCTTAAGACATAATGTTATTGTTTTATATACTCTTTAATCACCTACATCTTTGCACTTTAATATTTCCTAAATTTGCATTCTTCTCTCTGGGACTAGAAGACCTCAGCTTAGCGGTTCTTTTCATGTGGGCCTGAGAAATTTTCTCACTTTTTGTTTCACTTTCATTCTTGAAGGAACGTTTCACTGGTTATAGGATGCAAGGTTAGCGGTTATTCTCTTCTGCATCTTCCCACTGCATTGTCTTCTGAATCTTATAATTTATGTAAAAACATTAGTTGTCTGTCTTCCCATTGCTTCTGTGAAAATAATGCATGTTTTCCTCTGGTTGTTTTTGACATTTTCTTTGTGTCTGTTTCTCAGCAATTTTTCCATGATATATGCTCGGAGCGGGCTTACTTATCCTACACCCTGAATCTGTAGCTTGACGTCTTTTTGTCAACTTTGGAAAGTTTTTGGCATTATCTCATCAAATATTTCCCCTGTCCTGTTCTTGCTCTTCTCTTGCTGGAGTGCAGTCGTTCCTGTATTAGACCTTTGCATCATGTTCTAGGTATTTTTATCT
Gene: GRB10 | Location: Chr 7 | No. SNP: 1 | Chr location: 50660129

B5: 30 (nucleic acid, listed as Homo sapiens)
chain: AATATTAATTTGGGCTCTCCAGAGAAACAGAACCAATAGATTACACATAGATATATAGAAAGACAGTTATTACAAGGAATTGGCTCACAGGATTATGTAGGCTGAGAAGTCCCATGACCTGCCGTCTGCAAGCTGGAGACCCAGGAAAGCCGGTGGTGTAGTTCCAGTCCGAGTTGGGAGGTCTGAGAATCGGGAGAGCTGACAGAGTAAGCTCTAGTTGCAGCCTGGAGTCCAGAGGGCAAAGAACACCTATGTCCCATCTCAAGCACGGTCAGGCGTCCCAGCTCAAGCAGAGAGAAAGAAGACTTTCCTGCTCAGCCTCCTTGCTCTAAGCAGCCTCCCGACGGATTGGATGAAGCTCACCCACGCTGGGGAGGGCAGCCACCTTCACTCAGTCCACCAATTCAAATGCTAATCTCATCCAGAAACACCCTCACAGGCACACCCAGAAATAATGTTTAGCCACATATCTGGGCATCCTGAGGACCAGTCAAATTGACTCATAAGTCTCACCATCATA
Gene: RAB7A | Location: Chr3 | No. SNP: 1

B6: 32 (nucleic acid, listed as Homo sapiens)
chain: CTCCATGTTCTGACCTCAGGTGATCTGCCCGCCTCCGCCTCCCATAAGTTCCTTCTGCACCTATTCCATTCCATCTGCAATGTCATCCTGGCCAACCTGTGAATGGGTATAGCAGGATAGTAAGTTAGTCCCAGTGTTTAGGCAGACTCCATAGACCAGATTTAACGTGTTTGTATAAACCGCATGGCTCGCTCTTACTCAGCCTTCGGGTCGGCCTTAAGATACACAGTTTTAAGAAAAGCATTGTCTTCACTCTTAGTGTAGATCAGGTCCTCCTCNCCCCCANCACGTTATGTCCCTGTCATTGAACATTATACTTTTATGAAGAATTGTGAGCTGTCTGAGATTTTACCTTACTTGCAAACTAACAAGTGGGCCTGCCATAGTTTCATGTCTGGCAGAAGACTCCAACAGGTCAGAGATTTTCATCTGTCTTGTTCACTATTGTCTACATAGTGCCTGGAAAAATGCCTGGCACACAGTAAACCCTCAATCAGTATTTTATGAATGAGTGAAC
modifications: misc_difference 279 a, c, t, g, unknown or other; misc_difference 286 a, c, t, g, unknown or other
Location: Chr21 | No. SNP: 5

B7: 47 (nucleic acid, listed as Homo sapiens)
chain: AGGCCTGGCACAGTGGCTCATGCGTGTAATCCCAACACTGCGGGAAGCTGAGGCAGGAGGATCACTTGAGCCCAGGAGCTCATGGCTGTAGTGAGCTGTGATTGCACCACTGCACTGCACTCCAGCCTGGGCAACAGCAAGACCCTGTCTCCAAAAAAAAAAAACAAAACAAATTAAT
Gene: LINE1/Alu | Location: Chr 10 | No. SNP: 4 | Chr location: 14247220

B8: 39 (nucleic acid, listed as Homo sapiens)
chain: GTATTTAGATTCCCAGACTTTGGAGCCAGATCGGCTGAGTTCAAACCCTGTCTGTGCAACTATCAGCTGTTCAGCTGTGTGACCTTGGGCAAGTTACTTAACCTCTCTGAACCCTGATTCCTCCTGCAAACGGTGGGAAAAATAATAGAACCAATCTCTCTGGGTTGCTGTAAGGATTAAATTAATTTACAGTGCATGTAACATGCTTACAGCAATGTCTGGCACACAGTAAGCACTAAGTATTTGTTGTTATTTGTCATC
Location: Chr 2 | No. SNP: 1 | Chr location: 27942978

B9: 46 (nucleic acid, listed as Homo sapiens)
chain: CACCCAAGTCACCTCTTGAATGCTTTGCTGCTTAGACATTTCTTCTGCCAGATACCCTAAATAATCTCTCTCAAGTTCAAAGTTCCACAAATCTCTAGGGCAGGGGCAAAATGCCACCAGTCTGTTTGCTAAAACATAACAAGAGTCATCTTTGCTCCAGTTCCCAACAAATTCCTTATCTCCATCTGAGACCACCTTATCCTGGATTTCATTGTCCATATCATTATCAGCATTTTGGTCAAAGCCACTCCACAAGTCCCTAGGAAGTTCCAAACTTTCCCACATTTTCCTGTCTTCTTCTGAGGCCTCCAACCTATTCCACCCTCTGTCTGTTACCCAGTTCCAAAGTTGCTTCTACATTTTCAGGTGTCTTTTCAGCAGTGCCACACTCTACTGGTACTAATTTAC
Location: Chr 5 | No. SNP: 2 | Chr location: 107782747
